# B1: Ras GTPase-activating protein 1 (Homo sapiens), P20936 (parent)
# chain: MMAAEAGSEEGGPVTAGAGGGGAAAGSSAYPAVCRVKIPAALPVAAAPYPGLVETGVAGTLGGGAALGSEFLGAGSVAGALGGAGLTGGGTAAGVAGAAAGVAGAAVAGPSGDMALTKLPTSLLAETLGPGGGFPPLPPPPYLPPLGAGLGTVDEGDSLDGPEYEEEEVAIPLTAPPTNQWYHGKLDRTIAEERLRQAGKSGSYLIRESDRRPGSFVLSFLSQMNVVNHFRIIAMCGDYYIGGRRFSSLSDLIGYYSHVSCLLKGEKLLYPVAPPEPVEDRRRVRAILPYTKVPDTDEISFLKGDMFIVHNELEDGWMWVTNLRTDEQGLIVEDLVEEVGREEDPHEGKIWFHGKISKQEAYNLLMTVGQVCSFLVRPSDNTPGDYSLYFRTNENIQRFKICPTPNNQFMMGGRYYNSIGDIIDHYRKEQIVEGYYLKEPVPMQDQEQVLNDTVDGKEIYNTIRRKTKDAFYKNIVKKGYLLKKGKGKRWKNLYFILEGSDAQLIYFESEKRATKPKGLIDLSVCSVYVVHDSLFGRPNCFQIVVQHFSEEHYIFYFAGETPEQAEDWMKGLQAFCNLRKSSPGTSNKRLRQVSSLVLHIEEAHKLPVKHFTNPYCNIYLNSVQVAKTHAREGQNPVWSEEFVFDDLPPDINRFEITLSNKTKKSKDPDILFMRCQLSRLQKGHATDEWFLLSSHIPLKGIEPGSLRVRARYSMEKIMPEEEYSEFKELILQKELHVVYALSHVCGQDRTLLASILLRIFLHEKLESLLLCTLNDREISMEDEATTLFRATTLASTLMEQYMKATATQFVHHALKDSILKIMESKQSCELSPSKLEKNEDVNTNLTHLLNILSELVEKIFMASEILPPTLRYIYGCLQKSVQHKWPTNTTMRTRVVSGFVFLRLICPAILNPRMFNIISDSPSPIAARTLILVAKSVQNLANLVEFGAKEPYMEGVNPFIKSNKHRMIMFLDELGNVPELPDTTEHSRTDLSRDLAALHEICVAHSDELRTLSNERGAQQHVLKKLLAITELLQQKQNQYTKTNDVR
# partner: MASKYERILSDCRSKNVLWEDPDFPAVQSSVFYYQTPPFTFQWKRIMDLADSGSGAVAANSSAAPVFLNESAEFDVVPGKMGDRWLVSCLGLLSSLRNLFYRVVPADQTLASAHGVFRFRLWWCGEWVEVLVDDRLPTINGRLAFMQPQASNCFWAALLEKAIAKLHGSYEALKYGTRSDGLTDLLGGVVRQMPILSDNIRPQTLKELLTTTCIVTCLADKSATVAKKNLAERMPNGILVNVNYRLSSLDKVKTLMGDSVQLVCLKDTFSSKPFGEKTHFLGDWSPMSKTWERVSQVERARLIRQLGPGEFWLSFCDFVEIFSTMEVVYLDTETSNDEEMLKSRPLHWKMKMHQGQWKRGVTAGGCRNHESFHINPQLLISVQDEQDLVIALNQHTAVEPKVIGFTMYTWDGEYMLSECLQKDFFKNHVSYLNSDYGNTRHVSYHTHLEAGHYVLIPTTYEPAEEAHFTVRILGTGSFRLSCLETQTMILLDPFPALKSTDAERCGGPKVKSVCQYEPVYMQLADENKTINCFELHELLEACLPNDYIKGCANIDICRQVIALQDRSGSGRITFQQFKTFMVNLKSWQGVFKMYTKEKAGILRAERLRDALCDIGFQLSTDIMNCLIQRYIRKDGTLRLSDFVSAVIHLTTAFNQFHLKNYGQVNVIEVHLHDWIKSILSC
# Variants of: B1
# Settings: with canc_drome CalpC
row,effect of a mutation on the interaction,Variant
1,disrupting interaction,W317K

# Reference: IntAct's records for PubMed 18761085
